According to article PMC5336275:

Biological target: Thermus thermophilus SoxB (Thermus thermophilus) (UniProt Q72IT0)
Test: ITC; SoxB (50 μM) in the cell, SoxYZ as the titrant; 25°C; 30 mM Tris/HCl pH 8.0, 200 mM NaCl; two replicate experiments fitted together to a hetero-association model (A + B ↔ AB)

UniProt Q72IT0, sequence (Q72IT0 entry or part of it): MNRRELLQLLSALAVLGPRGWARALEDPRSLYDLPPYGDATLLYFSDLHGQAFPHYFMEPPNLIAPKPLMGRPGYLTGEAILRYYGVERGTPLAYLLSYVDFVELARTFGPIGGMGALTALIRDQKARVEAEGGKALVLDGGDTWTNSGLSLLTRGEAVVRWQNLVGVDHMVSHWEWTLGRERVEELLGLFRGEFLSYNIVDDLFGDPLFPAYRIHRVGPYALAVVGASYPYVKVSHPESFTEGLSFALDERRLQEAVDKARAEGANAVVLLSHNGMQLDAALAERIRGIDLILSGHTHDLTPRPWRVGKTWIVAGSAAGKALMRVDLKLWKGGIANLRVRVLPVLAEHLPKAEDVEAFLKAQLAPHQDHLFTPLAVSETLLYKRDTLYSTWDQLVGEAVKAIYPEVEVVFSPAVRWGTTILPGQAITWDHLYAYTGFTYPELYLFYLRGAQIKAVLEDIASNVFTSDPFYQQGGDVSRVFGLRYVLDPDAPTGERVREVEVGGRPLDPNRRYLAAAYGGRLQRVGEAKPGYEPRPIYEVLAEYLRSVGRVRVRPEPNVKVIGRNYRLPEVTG

Row | Substance | Kd [µM] | dH [kcal/mol]
1 | Thermus thermophilus SoxYZ-S-sulfonate (from UniProt Q72IS6 1-152; Q72IS7 1-108) (complex) | 30 | -2
2 | Thermus thermophilus SoxY_(C151E)Z variant (from UniProt Q72IS6 1-152; Q72IS7 1-108) (complex) | 10 | -5
